Laboratory results reported in publication PMC11477680, “A Label-Free Electrochemical Aptamer Sensor for Sensitive Detection of Cardiac Troponin I Based on AuNPs/PB/PS/GCE”.

Tests used:
myoglobin (Myo) = biological target: T1, myoglobin (Myo) (UniProt P02144 2-154); assay: electrochemical aptasensor (DPV); 1 ng/mL; negligible current change; Aptamer immobilization: 20 mM Tris-HCl, 5 mM MgCl2, 50 mM NaCl, pH 7.4, 4 C; cTnI incubation 1 h (serum samples: 10% serum in 20 mM Tris-HCl, 150 mM NaCl, pH 7.4, 37 C); DPV read in 0.8 M KNO3, CV/EIS in 0.1 M PBS with 5 mM [Fe(CN)6]3-/4-; conditions: protein: commercial
T1 sequence: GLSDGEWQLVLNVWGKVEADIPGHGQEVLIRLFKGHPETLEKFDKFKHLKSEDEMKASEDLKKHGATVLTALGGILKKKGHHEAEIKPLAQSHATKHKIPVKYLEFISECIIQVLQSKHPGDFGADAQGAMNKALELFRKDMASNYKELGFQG

[1] = biological target: cardiac troponin I (cTnI) (UniProt P19429 2-210); assay: electrochemical aptasensor (DPV, CV, EIS); DPV response 10 fg/mL-1.0 ug/mL, LOD 2.03 fg/mL; Rct 514 to 606 ohm with 100 ng/mL cTnI; Aptamer immobilization: 20 mM Tris-HCl, 5 mM MgCl2, 50 mM NaCl, pH 7.4, 4 C; cTnI incubation 1 h (serum samples: 10% serum in 20 mM Tris-HCl, 150 mM NaCl, pH 7.4, 37 C); DPV read in 0.8 M KNO3, CV/EIS in 0.1 M PBS with 5 mM [Fe(CN)6]3-/4-; conditions: protein: commercial
Chain of cardiac troponin I (cTnI) (P19429 2-210): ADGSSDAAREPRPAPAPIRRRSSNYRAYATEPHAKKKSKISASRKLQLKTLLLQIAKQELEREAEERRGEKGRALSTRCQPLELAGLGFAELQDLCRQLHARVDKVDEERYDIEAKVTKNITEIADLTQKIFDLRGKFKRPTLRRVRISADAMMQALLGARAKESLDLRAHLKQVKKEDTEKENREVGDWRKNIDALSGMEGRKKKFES

CGTGCAGTACGCCAACCTTTCTCATGCGCTGCCCCCCTCTTA (ssDNA, 5'-SH-(C6) thiol linker) [Tro4]: no binding (myoglobin (Myo)); binds [1].
